The text below walks through data of PMC4339652 (2015).

This experiment addresses T1, G3p N1 (Filamentous phage, UniProt O80297).
T1 chain: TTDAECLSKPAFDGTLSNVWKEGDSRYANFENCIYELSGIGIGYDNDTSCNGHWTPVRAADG
Briefly: SPR. Background: Surface plasmon resonance follows binding to a sensor surface in real time, without labels.

B1: TolA TolAIII (protein)
chain: GGGAKGNNASPAGSGNTKNNGASGADINNYAGQIKSAIESKFYDASSYAGKTCTLRIKLAPDGMLLDIKPEGGDPALCQAALAAAKLAKIPKPPSQAVYEVFKNAPLDFKP
Take B1: binding was put at a Kd of 14.9 µM.

One may read the Kd as the concentration at which binding is half-saturated. Read a low Kd as higher affinity.
